Measured values reported in the supplement of paper PMC9112550, “Optimization of the antimicrobial peptide Bac7 by deep mutational scanning” (BMC Biology, 2022).

test system: Escherichia coli TOP10; assay: shrunken log2 fold change of peptide-encoding DNA abundance (4.5 h post-induction vs induction); higher = less antimicrobial activity (less host growth inhibition); details: time post-induction: 4.5 h; library: site-saturation at positions 5, 18, 19, 20
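Further: peptides expressed intracellularly from a pBAD plasmid library in pooled LB shake-flask culture, induced with 0.3% L-arabinose, DNA abundance read by NGS, three biological replicates, DESeq2 with apeglm shrinkage.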

Sequence | shrunken log2 fold change
RRIRTRPPRLPRPRPRPAGAPRP | 0.164
RRIRKRPPRLPRPRPRPKEVPRP | 0.0319
RRIRERPPRLPRPRPRPRNLPRP | -0.514
RRIRFRPPRLPRPRPRPHFQPRP | -0.261
RRIRGRPPRLPRPRPRPYGYPRP | 0.158
RRIRVRPPRLPRPRPRPYAPPRP | -0.0528
RRIRMRPPRLPRPRPRPKPAPRP | 1.55
RRIRRRPPRLPRPRPRPLVFPRP | -0.0441
RRIRMRPPRLPRPRPRPHPNPRP | 0.299
RRIRYRPPRLPRPRPRPAPDPRP | 0.307
RRIRRRPPRLPRPRPRPFKYPRP | -0.252
RRIRARPPRLPRPRPRPTQCPRP | 0.391
RRIRARPPRLPRPRPRPQLLPRP | 0.527
RRIRWRPPRLPRPRPRPSCSPRP | -0.349
RRIRYRPPRLPRPRPRPHFHPRP | -0.489
RRIRVRPPRLPRPRPRPFSAPRP | -0.132
RRIRVRPPRLPRPRPRPYIRPRP | -0.434
RRIRRRPPRLPRPRPRPFIYPRP | -0.194
RRIRRRPPRLPRPRPRPYNPPRP | -0.348
RRIRIRPPRLPRPRPRPPDAPRP | 0.5

Sequence | shrunken log2 fold change
RRIRFRPPRLPRPRPRPAGAPRP | 0.515
RRIRVRPPRLPRPRPRPLPAPRP | 0.449
RRIRPRPPRLPRPRPRPWGGPRP | 0.702
RRIRNRPPRLPRPRPRPHMFPRP | -0.0579
RRIRMRPPRLPRPRPRPQEEPRP | -0.0207
RRIRSRPPRLPRPRPRPNFPPRP | 0.0832
RRIRFRPPRLPRPRPRPGMMPRP | -0.216
RRIRQRPPRLPRPRPRPVKGPRP | -0.0475
RRIRQRPPRLPRPRPRPDGMPRP | -0.199
RRIRHRPPRLPRPRPRPIYFPRP | -0.123
RRIRIRPPRLPRPRPRPWRCPRP | -0.107
RRIRLRPPRLPRPRPRPGNEPRP | -0.0032
RRIRIRPPRLPRPRPRPVISPRP | -0.43
RRIRGRPPRLPRPRPRPWKDPRP | 0.000655
RRIRWRPPRLPRPRPRPVKRPRP | 0.015
RRIRGRPPRLPRPRPRPQGQPRP | 0.414
RRIRNRPPRLPRPRPRPHIMPRP | -0.122
RRIRNRPPRLPRPRPRPLFQPRP | -0.421
RRIRSRPPRLPRPRPRPGMHPRP | -0.0823
RRIRHRPPRLPRPRPRPKKLPRP | -0.104

Sequence | shrunken log2 fold change
RRIRVRPPRLPRPRPRPFSNPRP | -0.28
RRIRFRPPRLPRPRPRPEWGPRP | 0.186
RRIRDRPPRLPRPRPRPLTMPRP | 0.188
RRIRERPPRLPRPRPRPLLFPRP | -0.121
RRIRARPPRLPRPRPRPTKCPRP | 0.141
RRIRQRPPRLPRPRPRPISQPRP | 0.0474
RRIRLRPPRLPRPRPRPSYNPRP | -0.588
RRIRLRPPRLPRPRPRPFCYPRP | -0.465
RRIRYRPPRLPRPRPRPGAPPRP | 0.312
RRIRPRPPRLPRPRPRPKWGPRP | 0.0577
RRIRYRPPRLPRPRPRPAGCPRP | -0.177
RRIRPRPPRLPRPRPRPNIMPRP | -0.694
RRIRRRPPRLPRPRPRPRSYPRP | 0.0753
RRIRIRPPRLPRPRPRPYFHPRP | -0.835
RRIRIRPPRLPRPRPRPTHGPRP | 0.0479
RRIRSRPPRLPRPRPRPRSVPRP | 0.0603
RRIRERPPRLPRPRPRPTWWPRP | 0.412
RRIRCRPPRLPRPRPRPNYPPRP | -0.427
RRIRQRPPRLPRPRPRPDLQPRP | -0.0429
RRIRYRPPRLPRPRPRPLYYPRP | -1.44
